Measurements taken from patent US12319742 (SHATTUCK LABS, dated 2025).

Columns and labels:
[1] = biological target: T1, biotinylated recombinant human TNFRSF25-His tagged (Acro #TN5-H52H3) (human, UniProt Q93038 25-199, biotinylated); assay: MSD competition; scFv supernatant serially diluted on TNFRSF25-coated plate, then TL1A added and the remaining TL1A detected
T1 construct: treated as the same protein; also called recombinant biotin-conjugated human TNFRSF25 protein; DR3
T1 sequence (looked up): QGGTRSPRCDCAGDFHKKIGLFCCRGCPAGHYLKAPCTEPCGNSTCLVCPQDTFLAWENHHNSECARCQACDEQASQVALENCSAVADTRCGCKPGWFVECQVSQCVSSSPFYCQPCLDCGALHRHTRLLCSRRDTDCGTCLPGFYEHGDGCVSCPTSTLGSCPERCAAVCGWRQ
From the text: (FIG. 2A) TNFRSF25 was precoated on MSD assay plates followed by adding scFv supernatant at 2-fold serial-dilutions followed by detection of the myc tag present on the C-terminus of the scFv's. (FIG. 2B) scFv supernatant were serially diluted and added to an MSD-plate pre-coated with TNFRSF25.

[2] = biological target: T1, biotinylated recombinant human …; assay: BLI/Octet; biotinylated TNFRSF25 on streptavidin sensor, mAb in solution; 1:1 Langmuir model
From the text: Provided herein are monoclonal and biparatopic antibodies that specifically target human TNFRSF25. The monoclonal antibodies were produced in an engineered CHOK1 cell-line by transfecting the cells with vectors genetically encoding the Heavy and Light chain antibody sequences followed by a single-step affinity-capture chromatography using FcXL resins. The final monoclonal antibody preparation was buffer exchanged into PBS, pH 7.4. Production of biparatopic antibodies followed a two-step process. In the first step of the process, the so called Knob-half (or Hole-half) antibody was produced by transfecting an engineered CHOK1 cell-line with vectors genetically encoding the Knob (or the Hole) Heavy chain and the corresponding Light chain sequences. The CHOK1-cell-harvest from the Knob-half antibody and Hole half-antibody was then purified by Protein A column-based chromatography. In the second step of the process, the two half-antibodies were reassembled into the desired biparatopic format by the use of a mild reduction step followed by quenching the reaction with buffer exchange into PBS, pH 7.4. To detect binding of the antibodies to human TNFRSF25, recombinant biotin-conjugated human TNFRSF25 protein was immobilized onto a streptavidin-coated MSD (Meso Scale Discovery) plate and allowed to bind the anti-TNFRSF25 mAbs in solution. Following a washing step, the bound antibodies were detected using a sulfo-tagged anti-human Fc antibody. The results of these MSD assays are shown in arbitrary units (au) on the y-axis of FIG. 1. To determine the binding affinity of the antibodies to recombinant human TNFRSF25 protein, recombinant biotin-conjugated human TNFRSF25 protein was immobilized onto a streptavidin-coated BLI sensor and allowed to bind the anti-TNFRSF25 mAbs in solution phase. The binding affinity (K_D) was calculated using the on-rates (Ka) and off-rates (Kd) of mAb binding to the target using a 1:1 Langmuir binding model in the ForteBio data analysis software.

[3] = biological target: FcγR1 (CD64), BLI reagent (UniProt P12314 16-288, limits assumed); assay: BLI; antibody as analyte at 300 nM on FcγR1
FcγR1 (CD64), BLI reagent, sequence (P12314 16-288 limits assumed): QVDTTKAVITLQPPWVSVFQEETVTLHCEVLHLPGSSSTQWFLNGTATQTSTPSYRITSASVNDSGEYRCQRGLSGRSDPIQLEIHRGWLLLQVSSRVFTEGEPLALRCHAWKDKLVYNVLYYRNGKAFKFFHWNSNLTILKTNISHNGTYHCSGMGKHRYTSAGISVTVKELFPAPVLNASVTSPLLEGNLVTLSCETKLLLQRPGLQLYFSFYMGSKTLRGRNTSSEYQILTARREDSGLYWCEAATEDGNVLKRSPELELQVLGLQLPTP

[4] = biological target: T1, biotinylated recombinant human …; assay: MSD competition (lower panel); antibody on TNFRSF25-coated plate, wash, then TL1A-rabbit Fc at 0.4 ug/ml, sulfo-tag anti-rabbit detection; raw MSD signal
Protocol: (§1) Figure 6: FIG. 6. […] Human TNFRSF25 was precoated on MSD assay plates followed by incubating with various concentrations of anti-TNFRSF25 antibodies.

[5] = biological target: T2, biotinylated recombinant human FcRn-His tagged protein (Acro #FCM-H82W7) (human, UniProt P55899 24-297; P61769 21-119, biotinylated); assay: BLI/Octet; biotinylated human FcRn-His on streptavidin biosensor
T2 construct: also called hFcRn; neonatal Fc receptor
T2 sequence (P55899 24-297 limits assumed, chain 1 of 2): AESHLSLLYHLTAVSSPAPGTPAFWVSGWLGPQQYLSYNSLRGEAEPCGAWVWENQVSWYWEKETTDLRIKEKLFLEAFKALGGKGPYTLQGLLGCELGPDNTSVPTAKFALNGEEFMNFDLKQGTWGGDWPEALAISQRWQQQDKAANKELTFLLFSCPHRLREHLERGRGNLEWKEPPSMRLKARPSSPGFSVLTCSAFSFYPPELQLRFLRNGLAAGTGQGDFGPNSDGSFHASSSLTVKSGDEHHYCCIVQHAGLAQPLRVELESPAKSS
T2 sequence (P61769 21-119 limits assumed, chain 2 of 2): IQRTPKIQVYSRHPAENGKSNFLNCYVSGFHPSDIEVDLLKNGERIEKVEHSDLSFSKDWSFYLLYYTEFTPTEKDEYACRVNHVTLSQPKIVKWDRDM
Protocol: (§2) Figure 5D: FIG. 5D. FcRn binding kinetics by anti-TNFRSF25 antibodies. BLI assay was performed using the Octet Red 96e instrument. Streptavidin biosensors were loaded with biotinylated recombinant human(h) FcRn-His tagged protein (Acro #FCM-H82W7) as the ligand. During the association phase, biosensors were incubated with anti-DR3 candidate antibodies at various concentrations for 600 seconds, followed by a 600-second dissociation phase.
(§3) To detect binding of certain whole antibodies to the neonatal Fc receptor (FcRn) at neutral and acidic pH conditions, streptavidin biosensors were loaded with biotinylated recombinant human FcRn-His tagged protein (Acro #FCM-H82W7) as the ligand. During the association phase, biosensors were incubated with anti-TNFRSF25 antibodies at various concentrations for 600 seconds, followed by a 600 second dissociation phase.

[6] = biological target: T2, biotinylated recombinant human FcRn-His …; assay: BLI/Octet; biotinylated human FcRn-His on streptavidin biosensor; pH 7.4
Protocol: as §2, §3

[7] = biological target: T2, biotinylated recombinant human FcRn-His …; assay: BLI/Octet; biotinylated human FcRn-His on streptavidin biosensor; pH 6.0
Protocol: as §2, §3

[8] = biological target: T1, biotinylated recombinant human …; assay: BLI/Octet Red 96e; biotinylated TNFRSF25-His on streptavidin biosensor; 600 s association, 600 s dissociation
Protocol: Figure 4: FIG. 4. TNFRSF25 binding affinity of anti-TNFRSF25 antibodies. BLI assay was performed using the Octet Red 96e instrument. Streptavidin biosensors were loaded with biotinylated recombinant human TNFRSF25-His tagged (Acro #TN5-H52H3) as the ligand. During the association phase, biosensors were incubated with anti-TNFRSF25 antibodies at various concentrations for 600 seconds, followed by a 600-second dissociation phase.
as §3, with “human TNFRSF25,” for “the neonatal Fc receptor (FcRn) at neutral and acidic pH conditions,”, “TNFRSF25-His” for “FcRn-His”, “tagged” for “tagged protein”, “#TN5-H52H3)” for “#FCM-H82W7)”

[9] = biological target: T1, biotinylated recombinant human …; assay: MSD competition; TNFRSF25 on plate, antibody titrated, then TL1A-rabbit Fc 0.4 µg/ml as competitor
Protocol: as §1

B1: NH24-47 (scFv, not shown: small tags and cut ends)
scFv: EVQLVESGGGSVQPGGSLRLSCAASGFTFSSYGMSWVRQAPGKGLEWISYISSSGGHTYYADSVKGRFTISRDNAKNSLYLQMNSLRAEDTAVYYCARYSGAFDRWGQGTPVTVSSGGRGSGGGGSGSGGSDIVMTQSPSSLSASVGDRVTITCQASQDISNYLSWYQQKPGKAPKLLISDASNLETGVPSRFSGSGSGTDFTFTISSLQPEDIATYYCQQYDNLPITFGQGTRLEIKR
notes: one of the four variants of group m25; used as unpurified E. coli supernatant; the sheet prints NH24-47; also called NH24-47 scFv
B1: binds [1].

B2: NH24-72 (scFv, not shown: small tags and cut ends)
scFv: EVQLVESGGGSVQPGGSLRLSCAASGFTFSSYGMNWIRQAPGKGLEWITYISSSGGHTYYADSVKGRFTISRDNAKNSLYLQMNSLRAEDTAVYYCARGQGPFEYWGQGTLVTVSSGGRGSGGGGSGSGGSDIVMTQSPSSLSASVGDRVTITCQASQDISNYLSWYQQKPGKAPKLLINDASNLETGVPSRFSGSGSGTDFTFTISSLQPEDIATYYCQQYDNLPITFGQGTRLEIKR
notes: one of the four variants of group m25; used as unpurified E. coli supernatant; the sheet prints NH24-72; also called NH24-72 scFv
B2: binds [1].

B3: SL-034 (antibody, human IgG1, kappa, L234A L235A, N297A)
heavy: QVQLQQSGPGLVKPSQTLSLTCAISGDSVSGYSAAWNWIRQSPSRGLEWLGRTYYRSKWYNDYAVSVKSRITINPDTSKNQFSLQLNSVTPEDTAVYYCARDYYGSESYYNRGYYYYGMDVWGQGTTVTVSSASTKGPSVFPLAPSSKSTSGGTAALGCLVKDYFPEPVTVSWNSGALTSGVHTFPAVLQSSGLYSLSSVVTVPSSSLGTQTYICNVNHKPSNTKVDKKVEPKSCDKTHTCPPCPAPEAAGGPSVFLFPPKPKDTLMISRTPEVTCVVVDVSHEDPEVKFNWYVDGVEVHNAKTKPREEQYASTYRVVSVLTVLHQDWLNGKEYKCKVSNKALPAPIEKTISKAKGQPREPQVYTLPPSREEMTKNQVSLTCLVKGFYPSDIAVEWESNGQPENNYKTTPPVLDSDGSFFLYSKLTVDKSRWQQGNVFSCSVMHEALHNHYTQKSLSLSPGK
light: AIQLTQSPSSLSASVGDRVTITCRASPGISSALAWYQQKPGKAPKLLMYDESSQESGVPSRFSGSGSGTDFTLTISSLQPEDFATYYCQQFNDYPLTFGGGTKVEIKRTVAAPSVFIFPPSDEQLKSGTASVVCLLNNFYPREAKVQWKVDNALQSGNSQESVTEQDSKDSTYSLSSTLTLSKADYEKHKVYACEVTHQGLSSPVTKSFNRGEC
notes: Same variable regions as SL-033; also called clone 034; L234A/L235A+N297A
With B3 the Kd [2] was less than 1000 pM and the binding result [3] was “no binding (tested: 300 nM)”.

B4: SL-061_LS (antibody, human IgG1, kappa)
heavy: QVQLQQSGPGLVKPSQTLSLTCAISGDSVSGYSAAWNWIRQSPSRGLEWLGRTYYRSKWYNDYAVSVKSRITINPDTSKNQFSLQLNSVTPEDTAVYYCARDYYGSESYYNRGYYYYGMDVWGQGTTVTVSSASTKGPSVFPLAPSSKSTSGGTAALGCLVKDYFPEPVTVSWNSGALTSGVHTFPAVLQSSGLYSLSSVVTVPSSSLGTQTYICNVNHKPSNTKVDKKVEPKSCDKTHTCPPCPAPEAAGAPSVFLFPPKPKDTLMISRTPEVTCVVVDVSHEDPEVKFNWYVDGVEVHNAKTKPREEQYNSTYRVVSVLTVLHQDWLNGKEYKCKVSNKALPAPIEKTISKAKGQPREPQVYTLPPSREEMTKNQVSLTCLVKGFYPSDIAVEWESNGQPENNYKTTPPVLDSDGSFFLYSKLTVDKSRWQQGNVFSCSVLHEALHSHYTQKSLSLSPGK
light: AIQLTQSPSSLSASVGDRVTITCRASPGISSALAWYQQKPGKAPKLLMYDESSQESGVPSRFSGSGSGTDFTLTISSLQPEDFATYYCQQFNDYPLTFGGGTKVEIKRTVAAPSVFIFPPSDEQLKSGTASVVCLLNNFYPREAKVQWKVDNALQSGNSQESVTEQDSKDSTYSLSSTLTLSKADYEKHKVYACEVTHQGLSSPVTKSFNRGEC
notes: SL-061 with LS half-life extension changes in the Fc
B4 was tested, and the “IC50 (read off the curve)” value [4] was roughly 200 pM, the “fold improvement in binding affinity at pH 6.0 compared to pH 7.4” value [5] was roughly 10 fold and the Kd [6] was 6780 pM. It also gave a koff [6] of 0.00144 s⁻¹, a kon [6] of 213000 M⁻¹ s⁻¹ and a Kd [7] of 879 pM. The koff [7] was 0.000181 s⁻¹ and the kon [7] was 206000 M⁻¹ s⁻¹.

B5: NH46 (whole antibody) (antibody, human IgG1, kappa, V domains shown)
VH: QVQLVQSGSEVKKPGASVRVSCKVSGSTVKELSMHWVRQAPGKGLEWMGGYDPEDGESIFAQKFQGRVNMTEDRSTDTAYMELSSLRSEDTAVYYCATDLNWEDAFDVWGQGTMVTVSS
VL: QSVLTQPPSVSAAPGQKVTISCSGSGSNIGNYYVAWYQQFPGTAPKLLIYDNNKRPSGIPDRFSGSKSGTSATLGITGLQTGDEADYYCGTWDTSLTAGDIYVFGTGTKVTVLR
With B5 the “Response (RU)” value [8] was 1.06 RU, the koff [8] was 8.54e-05 s⁻¹ and the kon [8] was 452000 M⁻¹ s⁻¹. For the same binder, the Kd [2] was 185 pM and the IC50 [9] was 260 pM.

B6: NH24 (whole antibody) (antibody, human IgG1, kappa, V domains shown)
VH: EVQLVESGGGSVQPGGSLRLSCAASGFTFSSYGMSWIRQAPGKGLEWISYISSSGGHTYYADSVKGRFTISRDNAKNSLYLQMNSLRAEDTAVYYCARGSGSFDYWGQGTLVTVSS
VL: DIVMTQSPSSLSASVGDRVTITCQASQDITNYLSWYQQKPGKAPKLLISDASNLETGIPSRFSGSGSGTDFTFTISSLQPEDIATYYCQQYDTLPITFGQGTRLEIKR
B6 was tested, and the “Response (RU)” value [8] was 0.73 RU, the koff [8] was 0.000742 s⁻¹ and the kon [8] was 1.26e+06 M⁻¹ s⁻¹. It also gave a Kd [2] of 590 pM and an IC50 [9] of 39400 pM.

B7: SL-038 (antibody, human IgG1, kappa, L234A L235A, V domains shown)
VH: EVQLVESGGGLSQPGNSLQLSCEASGFTFSNHDMNWVRQAPGKGLEWVAYISSASGLISYADSVRGRFTISRDNAKNSLFLQMNNLKSEDTAMYYCARDPAYSGNYALDFWGQGTQVTVSS
VL: QPVLTQSPSASASLSGSVKLTCTLSSELSSYTIVWYQQQPDKAPKYVMYLKSDGSHGKGDGIPDRFSGSSSGAHRYLSVSNVQSEDDATYFCGAGYTLAGQYGWVFGSGTKVTVLR
Binder B7 has a Kd [2] of 3600 pM.
